Assay results taken from the DeepSol protein solubility set.

Assay: soluble on expression in E. coli; label from the status in PepcDB or PDB records

Sequence | soluble on expression in E. coli
GSMTQIHQINDIDVHRITSGQVITDLTTAVKELVDNSIDANANQIEIIFKDYGLESIECSDNGDGIDPSNYEFLALKHYTSKIAKFQDVAKVQTLGFRGEALSSLCGIAKLSVITTTSPPKADKLEYDMVGHITSKTTTSRNKGTTVLVSQLFHNLPVRQKEFSKTFKRQFTKCLTVIQGYAIINAAIKFSVWNITPKGKKNLILSTMRNSSMRKNISSVFGAGGMRGLEEVDLVLDLNPFKNRMLGKYTDDPDFLDLDYKIRVKGYISQNSFGCGRNSKDRQFIYVNKRPVEYSTLLKCCNEVYKTFNNVQFPAVFLNLELPMSLIDVNVTPDKRVILLHNERAVIDIFKTTLSDYYNRQELALPK | soluble
GSPHMDEISETNTIFKLEGVSVLSPLRKKLDLVFYLSNVDGSPVITLLKGNDRELSIYQLNKNIKMASFLPVPEKPNLIYLFMTYTSCEDNKFSEPVVMTLNKENTLNQFKNLGLLDSNVTDFEKCVEYIRKQAILTGFKISNPFVNSTLVDTDAEKINSFHLQCHRGTKEGTLYFLPDHIIFGFKKPILLFDASDIESITYSSITRLTFNASLVTKDGEKYEFSMTDQTEYAKIDDYVKRKQMKDKSMSEELKAKSKSKG | soluble
GSPPWRGRREQCLLPPEDSRLWQYLLSRSMREHPALRSLRLLTLEQPQGDSMMTCEQAQLLANLARLIQAKKALDLGTFTGYSALALALALPADGRVVTCEVDAQPPELGRPLWRQAEAEHKIDLRLKPALETLDELLAAGEAGTFDVAVVDADKENCSAYYERCLQLLRPGGILAVLRVLWRGKVLQPPKGDVAAECVRNLNERIRRDVRVYISLLPLGDGLTLAFKI | soluble
GSQSSERVVIGSKPFNEQYILANMIAILLEENGYKAEVKEGLGGTLVNYEALKRNDIQLYVEYTGTAYNVILRKQPPELWDQQYIFDEVKKGLLEADGVVVAAKLGFRDDYALAVRADWAEENGVEKISDLAEFADQLVFGSDPEFASRPDGLPQIKKVYGFEFKEVKQMEPTLMYEAIKNKQVDVIPAYTTDSRVDLFNLKILEDDKGALPPYDAIIIVNGNTAKDEKLISVLKLLEDRIDTDTMRALNYQYDVEKKDAREIAMSFLKEQGLVK | soluble
GSRPATPPVTPPSREGHVADLDRFPQDLRVYAMKAGADRQLLPFTEQAAQDARWNRRFFAPWRMTRISVPVKDVAAPFGTDGRPRGYAENLLPWDVTRWGALASGAALDLYPSQAWKGIVVSNSALREVPTLRPMFTAPTRAGQGYPFDMFQRTAVWMGTPVFVGHATADRAWLYVETAFAAGWMPAADVARVDDAFMTRYESGSLAAILRDDTSLNGADGTHLATAHIGTVLPLSGASQVGRTVLVPVRAPEGHAVVVPVLLTSGEAAQKPVPLTPGNMAELGNRMMGQPYGWGGLYEDRDCSSTLRDLFTPFGLWLPRNSASQAKAGRYVDIAKLDADDKEARIVAEGVPFMTLLWLRGHITLYLGLHEGQAAMFHNMWGIRTHRGGVEGRYVLGRAVVTSTRPGLDVPGNDNADGLLGRMQGMSILPGGAQ | soluble
GSSAKRKQEEKHLKMLRDMTGLPHNRKCFDCDQRGPTYVNMTVGSFVCTSCSGSLRGLNPPHRVKSISMTTFTQQEIEFLQKHGNEVCKQIWLGLFDDRSSAIPDFRDPQKVKEFLQEKYEKKRWYVPPEQAKVVASVHA | soluble
GSSHHHHHHGSMLNMWKVRELVDKATNVVMNYSEIESKVREATNDDPWGPSGQLMGEIAKATFMYEQFPELMNMLWSRMLKDNKKNWRRVYKSLLLLAYLIRNGSERVVTSAREHIYDLRSLENYHFVDEHGKDQGINIRQKVKELVEFAQDDDRLREERKKAKKNKDKYVGVSSD | soluble
GSSHHHHHHSSGRENLYFQGHMPKRRKSVTGEIVLITGAGHGIGRLTAYEFAKLKSKLVLWDINKHGLEETAAKCKGLGAKVHTFVVDCSNREDIYSSAKKVKAEIGDVSILVNNAGVVYTSDLFATQDPQIEKTFEVNVLAHFWTTKAFLPAMTKNNHGHIVTVASAAGHVSVPFLLAYCSSKFAAVGFHKTLTDELAALQITGVKTTCLCPNFVNTGFIKNPSTSLGPTLEPEEVVNRLMHGILTEQKMIFIPSSIAFLTTLERILPEGS | soluble
GSVPATLPQLTPTLVSLLEVIEPEVLYAGYDSSVPDSTWRIMTTLNMLGGRQVIAAVKWAKAIPGFRNLHLDDQMTLLQYSWMYLMAFALGWRSYRQSSANLLCFAPDLIINEQRMTLPGMYDQCKHMLYVSSELHRLQVSYEEYLCMKTLLLLSSVPKDGLKSQELFDEIRMTYIKELGKAIVKREGNSSQNWQRFYQLTKLLDSMHEVVENLLNYCFQTFLDKTMSIEFPEMLAEIITNQIPKYSNGNIKKLLFHQK | soluble
GSVPVILEVAGIGKYAISIGGERQEGLTEEMVTQLSRQEFDKDNNTLFLVGGAKEVPYEEVIKALNLLHLAGIK | soluble
GTDQYTLLANRVQNAVEARQSATEAERRRHRLEQILKTVPSCVVQLDRDGQFVFANQRAIDVLGLSQSELKDRLYNDPEWEIRDLDGHPIPDAELPFRQVLETGQPLSDARHTIHWPDGTEKVLSVNGAPLFDDD | not soluble
GTGAESTAERSARFERDALEFLDQMYSAALRMTRNPADAEDLVQETYAKAYASFHQFREGTNLKAWLYRILTNTFINSYRKKQREPQ | soluble
GTTKISVPVPPPDANFPPSAAPVFYNPEMELNRDINVAATAAFVERLLSKKDILREEIRYVDAFSASGIRGLRIAGEVGIHSTMNDWSHEAFELIKENIKINGLEEKAQATRRNANVLLHEQRFHIVDVDPFGTPSPYLDAAASSAYSMLSVTATDTAPLCGAHLNSGIRKYASVPLNTEYHSEMGLRVLLGACARELAKHEKGMLPLLSHVTRHYVRTYLEVLPGSRKADKTLKSMGFVAHCPRCGFRKPVYGLAVHIEKECPECGGLTKIAGPLWLGPYREPEFCNEVISELEAHPLNTKEKVRKIITFCRDELDIPMFYDQHVICKELGASATGIESLIEALRAGGFEASRTHFTGTSFKTDAPIAEIKKIILALSG | not soluble
GVNPRGLGPLQIWQTDFTLEPRMAPRSWLAVTVDTASSAIVVTQHGRVTSVAVQHHWATAIAVLGRPKAIKTDNGSCFTSKSTREWLARWGIAHTTGIPGNSQGQAMVERANRLLKDRIRVLAEGDGFMKRIPTSKQGELLAKAMYALNHKERGENTKTPIQKHWRPTVLTEGPPVKIRIETGEWEKGWNVLVWGRGYAAVKNRDTDKVIWVPSRKVKPDITQKDEVTKKDEASPLFA | soluble
GVSIRSMKNFYDWIKEFVRDQGEFIAQQSGWLELERSSYAKLIAQTISHVLNGGSLLVSADSSRHWFLNYILSNLNPKDLKERPLLSVIDFNASSFYPKNDANLSLATIEMTYQNPMFWHVGKIENEGLKTILLSKIPSFLWLFEELKEDCLLLKEHDSLLDYKLLQLFKLFENALFSVLYNKVTL | soluble
HGIQLLGYARKILRFNDEACSSLMFSNLQGVLTIGASDESADTILPFLLNRVSSVYPKLALDVRVKRNAYMAEMLESQEVDLMVTTHRPSAFKALNLRTSPTHWYCAAEYILQKGEPIPLVLLDDPSPFRDMVLATLNKADIPWRLAYVASTLPAVRAAVKAGLGVTARPVEMMSPDLRVLSGVDGLPPLPDTEYLLCYDPSSNNELAQVIYQAMESYHNPWQYSPMSAPEGDDSLLIERDIE | soluble
HHHGIRMTRISREMMKELLSVYFIMGSNNTKADPVTVVQKALKGGATLYQFREKGGDALTGEARIKFAEKAQAACREAGVPFIVNDDVELALNLKADGIHIGQEDANAKEVRAAIGDMILGVAAHTMSEVKQAEEDGADYVGLGPIYPTETKKDTRAVQGVSLIEAVRRQGISIPIVGIGGITIDNAAPVIQAGADGVSMISAISQAEDPESAARKFREEIQTYKTGR | soluble
HHHHHHAIAENLYFQSGRYRIRVATGAWLFSGSYNRVQLWLVGTRGEAELELQLRPARGEEEEFDHDVAEDLGLLQFVRLRKHHWLVDDAWFCDRITVQGPGACAEVAFPCYRWVQGEDILSLPEGTARLPGDNALDMFQKHREKELKDRQQIYCWATWKEGLPLTIAADRKDDLPPNMRFHEEKRLDFEWTLKAGALEMALKRVYTLLSSWNCLEDFDQIFWGQKSALAEKVRQCWQDDELFSYQFLNGANPMLLRRSTSLPSRLVLPSGMEELQAQLEKELQNGSLFEADFILLDGIPANVIRGEKQYLAAPLVMLKMEPNGKLQPMVIQIQPPSPSSPTPTLFLPSDPPLAWLLAKSWVRNSDFQLHEIQYHLLNTHLVAEVIAVATMRCLPGLHPIFKFLIPHIRYTMEINTRARTQLISDGGIFDKAVSTGGGGHVQLLRRAAAQLTYCSLCPPDDLADRGLLGLPGALYAHDALRLWEIIARYVEGIVHLFYQRDDIVKGDPELQAWCREITEVGLCQAQDRGFPVSFQSQSQLCHFLTMCVFTCTAQHAAINQGQLDWYAWVPNAPCTMRMPPPTTKEDVTMATVMGSLPDVRQACLQMAISWHLSRRQPDMVPLGHHKEKYFSGPKPKAVLNQFRTDLEKLEKEITARNEQLDWPYEYLKPSCIENSVTI | soluble
HHHHHHGSGAVKLSVSYRNGTLFIMVMHIKDLVTEDGADPNPYVKTYLLPDTHKTSKRKTKISRKTRNPTFNEMLVYSGYSKETLRQRELQLSVLSAESLRENFFLGGITLPLKDFNLSKETVKWYQLTAATYL | soluble
HHHHHHYMEQEEDWDRDLLLDPAWEKQQRKTFTAWCNSHLRKAGTQIENIEEDFRNGLKLMLLLEVISGERLPRPDKGKMRFHKIANVNKALDFIASKGVKLVSIGAEEIVDGNLKMTLGMIWTIILRFAIQDISVEETSAKEGLLLWCQRKTAPYRNVNVQNFHTSWKDGLALCALIHRHRPDLIDYAKLRKDDPIGNLNTAFEVAEKYLDIPKMLDAEDIVNTPKPDEKAIMTYVSCFYHAFAGAEQAETAA | soluble
HMAQVFEECVSFINGLPRTINLPNELKLDLYKYYKQSTIGNCNIKEPSAHKYIDRKKYEAWKSVENLNREDAQKRYVDIVSEIFPYWQD | soluble
HMSVILDTKGEPVSNAADAYYLVPVSHGEGGLALAKVGNEAEPKAVVLDPHHRPGLTVRFETPLAIAIITESFFLNIKFVPSSSDSEVWDVSKQYPIGLAVKVTDTKSFVGPFRVEKEGEGYKIVYYPDRGQTGLDIGLVHRNDKYYLAATEGEPFVFKIRKATYE | soluble
HNGWTWEASLNLSANRNKLTELASGSKDDKANNWFVGHPIDCIYDYEKVGLWNSDDPDFQYLDILEPGGNEGMIKVKYTGDRDASGKPTRAIGPEDRQIISLEPKFQGGFSTRVAYKGFDLNVITAFRCGGKLISTLHHSNGYLNMLTGRRGQVDVDYWTPENKGAKYPKPGGIQSGDNPKYGSTLGYFDSSYWKVRNITLGYNFEKQAWLTRMGIQSLRAYLSVQNPFIICSPFHKETGLDPETNSYGNENVAVTEGIQKRFLTVGTNSPSTRNYLFGINLTF | not soluble
HPPMPDYTRSLESTLSFWASWVEELPHQRLYDAEVRRSMLVLRALTDLQTGGIVAAPTTSLPEDFGGIRNWDYRYVWLRDSALTIEALVEYGFSQAALQWRTWLLRAIAGDPENLRIMYGLGGERHLPERELQHLRGYENSVPVRVGNGAAEQYQADVVGEVMVALETIRRAGCLEDEFSWGMQKAILDFQEANFDRKDQGIWEMRSEPQYFTHGRAMMWAGFDRGIKAIEEFNLDGPIERWRELRAKLREEIMTNGFNEEIQSFTQCYDNTQVDASLLQLAQIGFIGFDDPKMLSTVARIEQELLDAHGFLHRYHTDGSDGLAGDEYPFLICSFWLVEQYASSNRLDEAKEKMNRILAVQSPLGLLAEEYSTHHGRLAGNYPQAFSHIGLISAARAINFEEARNR | not soluble
HQQQRSVMTEEYKVPDGMVGFIIGRGGEQISRIQQESGCKIQIAPDSGGLPERSCMLTGTPESVQSAKRLLDQIVEKGR | soluble
